2 molecules from article PMC10104474 (Science Advances, 2023) can be followed below.

Data set [1] has as its target Ucc1-Skp1(FL) complex (S. cerevisiae, UniProt Q05947 1-369; P52286 1-194). The data set can be described thus: pull-down.
Data set [2] concerns the molecule itself. The data set can be described thus: crystal structure.

Ucc1-Skp1(FL) complex, sequence (Q05947 whole entry, chain 1 of 2): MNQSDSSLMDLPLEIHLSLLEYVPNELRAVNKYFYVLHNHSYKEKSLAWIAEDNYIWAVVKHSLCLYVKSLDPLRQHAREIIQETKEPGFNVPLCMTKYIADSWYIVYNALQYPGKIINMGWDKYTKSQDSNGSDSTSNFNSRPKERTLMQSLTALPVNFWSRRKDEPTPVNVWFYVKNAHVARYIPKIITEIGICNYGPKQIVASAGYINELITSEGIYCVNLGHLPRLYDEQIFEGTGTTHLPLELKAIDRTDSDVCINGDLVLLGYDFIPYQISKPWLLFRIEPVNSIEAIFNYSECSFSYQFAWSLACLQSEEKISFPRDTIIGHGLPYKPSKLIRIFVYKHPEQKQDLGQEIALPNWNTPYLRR
Ucc1-Skp1(FL) complex, sequence (P52286 whole entry, chain 2 of 2): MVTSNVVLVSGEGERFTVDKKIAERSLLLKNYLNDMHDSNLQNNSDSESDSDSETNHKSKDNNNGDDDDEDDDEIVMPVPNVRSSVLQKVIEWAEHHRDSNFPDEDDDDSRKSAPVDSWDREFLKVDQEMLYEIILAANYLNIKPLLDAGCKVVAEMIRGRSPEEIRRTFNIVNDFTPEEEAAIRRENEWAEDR

B1: MBP-Cit1(Δ1–37) (enzyme, S. cerevisiae, UniProt P00890 38-479, looked up)
chain: SSASEQTLKERFAEIIPAKAEEIKKFKKEHGKTVIGEVLLEQAYGGMRGIKGLVWEGSVLDPEEGIRFRGRTIPEIQRELPKAEGSTEPLPEALFWLLLTGEIPTDAQVKALSADLAARSEIPEHVIQLLDSLPKDLHPMAQFSIAVTALESESKFAKAYAQGVSKKEYWSYTFEDSLDLLGKLPVIASKIYRNVFKDGKITSTDPNADYGKNLAQLLGYENKDFIDLMRLYLTIHSDHEGGNVSAHTTHLVGSALSSPYLSLAAGLNGLAGPLHGRANQEVLEWLFKLREEVKGDYSKETIEKYLWDTLNAGRVVPGYGHAVLRKTDPRYTAQREFALKHFPDYELFKLVSTIYEVAPGVLTKHGKTKNPWPNVDSHSGVLLQYYGLTEASFYTVLFGVARAIGVLPQLIIDRAVGAPIERPKSFSTEKYKELVKKIESKN
Regarding B1, the binding result in data set [1] was “binds”.

B2: Cit2 (full-length, HisSUMO1-tag cleaved) (enzyme, S. cerevisiae, UniProt P08679 1-460, looked up)
chain: MTVPYLNSNRNVASYLQSNSSQEKTLKERFSEIYPIHAQDVRQFVKEHGKTKISDVLLEQVYGGMRGIPGSVWEGSVLDPEDGIRFRGRTIADIQKDLPKAKGSSQPLPEALFWLLLTGEVPTQAQVENLSADLMSRSELPSHVVQLLDNLPKDLHPMAQFSIAVTALESESKFAKAYAQGISKQDYWSYTFEDSLDLLGKLPVIAAKIYRNVFKDGKMGEVDPNADYAKNLVNLIGSKDEDFVDLMRLYLTIHSDHEGGNVSAHTSHLVGSALSSPYLSLASGLNGLAGPLHGRANQEVLEWLFALKEEVNDDYSKDTIEKYLWDTLNSGRVIPGYGHAVLRKTDPRYMAQRKFAMDHFPDYELFKLVSSIYEVAPGVLTEHGKTKNPWPNVDAHSGVLLQYYGLKESSFYTVLFGVSRAFGILAQLITDRAIGASIERPKSYSTEKYKELVKNIESKL
As for B2, the “stoichiometry N” value in data set [2] is 2.

The stoichiometry N is a count of units in the complex or per binding partner.
